Tested on: Escherichia coli TOP10
Assay: shrunken log2 fold change of peptide-encoding DNA abundance (4.5 h post-induction vs induction); higher = less antimicrobial activity (less host growth inhibition)
Conditions: time post-induction: 4.5 h; library: site-saturation at positions 5, 18, 19, 20
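Note: peptides expressed intracellularly from a pBAD plasmid library in pooled LB shake-flask culture, induced with 0.3% L-arabinose, DNA abundance read by NGS, three biological replicates, DESeq2 with apeglm shrinkage.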

RRIRVRPPRLPRPRPRPASSPRP and RRIRVRPPRLPRPRPRPATTPRP are within 0.2 log units of each other in “shrunken log2 fold change” value: -0.122 for the first, 0.0611 for the second.

Compared with RRIRVRPPRLPRPRPRPAVEPRP, RRIRVRPPRLPRPRPRPAVGPRP is lower in “shrunken log2 fold change” value: 0.565 for the first, 0.186 for the second.

RRIRVRPPRLPRPRPRPCAIPRP and RRIRVRPPRLPRPRPRPCCHPRP are within 0.2 log units of each other in “shrunken log2 fold change” value: -0.379 for the first, -0.217 for the second.

Going from RRIRVRPPRLPRPRPRPCCPPRP to RRIRVRPPRLPRPRPRPCDDPRP, the “shrunken log2 fold change” value rises from -0.25 to -0.0369.

First: RRIRVRPPRLPRPRPRPCDFPRP
Second: RRIRVRPPRLPRPRPRPCGAPRP
The “shrunken log2 fold change” value of the first is lower: 0.0154 for the first, 0.279 for the second.

Going from RRIRVRPPRLPRPRPRPCHWPRP to RRIRVRPPRLPRPRPRPCIGPRP, the “shrunken log2 fold change” value falls from 0.169 to -0.8.

Going from RRIRVRPPRLPRPRPRPCKKPRP to RRIRVRPPRLPRPRPRPCLHPRP, the “shrunken log2 fold change” value falls from -0.433 to -0.947.

Compared with RRIRVRPPRLPRPRPRPCLKPRP, RRIRVRPPRLPRPRPRPCLTPRP is higher in “shrunken log2 fold change” value: -0.469 for the first, -0.0353 for the second.

RRIRVRPPRLPRPRPRPCMIPRP and RRIRVRPPRLPRPRPRPCMLPRP are within 0.2 log units of each other in “shrunken log2 fold change” value: -0.792 for the first, -0.606 for the second.

First: RRIRVRPPRLPRPRPRPCMYPRP
Second: RRIRVRPPRLPRPRPRPCPKPRP
The “shrunken log2 fold change” value of the first is lower: -0.387 for the first, -0.0457 for the second.

RRIRVRPPRLPRPRPRPCPPPRP and RRIRVRPPRLPRPRPRPCQHPRP are within 0.2 log units of each other in “shrunken log2 fold change” value: -0.216 for the first, -0.09 for the second.

RRIRVRPPRLPRPRPRPCQVPRP and RRIRVRPPRLPRPRPRPCRSPRP are within 0.2 log units of each other in “shrunken log2 fold change” value: -0.0502 for the first, 0.00156 for the second.

RRIRVRPPRLPRPRPRPCSAPRP and RRIRVRPPRLPRPRPRPCSFPRP are within 0.2 log units of each other in “shrunken log2 fold change” value: 0.0399 for the first, 0.0114 for the second.

First: RRIRVRPPRLPRPRPRPCTGPRP
Second: RRIRVRPPRLPRPRPRPCVAPRP
The “shrunken log2 fold change” value of the first is lower: -1.78 for the first, 0.159 for the second.

RRIRVRPPRLPRPRPRPCVDPRP and RRIRVRPPRLPRPRPRPCVHPRP are within 0.2 log units of each other in “shrunken log2 fold change” value: -0.0658 for the first, -0.192 for the second.

Compared with RRIRVRPPRLPRPRPRPCWPPRP, RRIRVRPPRLPRPRPRPCYNPRP is lower in “shrunken log2 fold change” value: 0.237 for the first, -0.11 for the second.

RRIRVRPPRLPRPRPRPDAMPRP and RRIRVRPPRLPRPRPRPDASPRP are within 0.2 log units of each other in “shrunken log2 fold change” value: 0.0806 for the first, 0.0719 for the second.

RRIRVRPPRLPRPRPRPDDNPRP and RRIRVRPPRLPRPRPRPDFRPRP are within 0.2 log units of each other in “shrunken log2 fold change” value: -0.0966 for the first, 0.00256 for the second.

RRIRVRPPRLPRPRPRPDGFPRP and RRIRVRPPRLPRPRPRPDGHPRP are within 0.2 log units of each other in “shrunken log2 fold change” value: -0.0085 for the first, -0.00145 for the second.

First: RRIRVRPPRLPRPRPRPDIEPRP
Second: RRIRVRPPRLPRPRPRPDIHPRP
The “shrunken log2 fold change” value of the first is higher: -0.0848 for the first, -0.427 for the second.

RRIRVRPPRLPRPRPRPDLEPRP and RRIRVRPPRLPRPRPRPDLKPRP are within 0.2 log units of each other in “shrunken log2 fold change” value: -0.0782 for the first, 0.00797 for the second.

RRIRVRPPRLPRPRPRPDMHPRP and RRIRVRPPRLPRPRPRPDNGPRP are within 0.2 log units of each other in “shrunken log2 fold change” value: -0.107 for the first, 0.0214 for the second.

Going from RRIRVRPPRLPRPRPRPDQLPRP to RRIRVRPPRLPRPRPRPDTMPRP, the “shrunken log2 fold change” value falls from 0.112 to -0.177.

First: RRIRVRPPRLPRPRPRPDYEPRP
Second: RRIRVRPPRLPRPRPRPEAKPRP
The “shrunken log2 fold change” value of the first is lower: 0.0678 for the first, 0.293 for the second.

First: RRIRVRPPRLPRPRPRPECCPRP
Second: RRIRVRPPRLPRPRPRPECGPRP
The “shrunken log2 fold change” value of the first is lower: 0.0234 for the first, 0.691 for the second.

First: RRIRVRPPRLPRPRPRPEDCPRP
Second: RRIRVRPPRLPRPRPRPEDGPRP
The “shrunken log2 fold change” value of the first is higher: -0.0557 for the first, -0.263 for the second.

RRIRVRPPRLPRPRPRPEEKPRP and RRIRVRPPRLPRPRPRPEEQPRP are within 0.2 log units of each other in “shrunken log2 fold change” value: -0.0261 for the first, 0.0234 for the second.

RRIRVRPPRLPRPRPRPEFLPRP and RRIRVRPPRLPRPRPRPEFSPRP are within 0.2 log units of each other in “shrunken log2 fold change” value: 0.0805 for the first, -0.0024 for the second.

Going from RRIRVRPPRLPRPRPRPEGDPRP to RRIRVRPPRLPRPRPRPEGFPRP, the “shrunken log2 fold change” value falls from 0.297 to 0.0396.

First: RRIRVRPPRLPRPRPRPEHCPRP
Second: RRIRVRPPRLPRPRPRPEHSPRP
The “shrunken log2 fold change” value of the first is higher: 0.404 for the first, 0.115 for the second.

RRIRVRPPRLPRPRPRPEHTPRP and RRIRVRPPRLPRPRPRPEIWPRP are within 0.2 log units of each other in “shrunken log2 fold change” value: 0.224 for the first, 0.223 for the second.

RRIRVRPPRLPRPRPRPEKFPRP and RRIRVRPPRLPRPRPRPEKYPRP are within 0.2 log units of each other in “shrunken log2 fold change” value: -0.208 for the first, -0.171 for the second.

Going from RRIRVRPPRLPRPRPRPELWPRP to RRIRVRPPRLPRPRPRPENRPRP, the “shrunken log2 fold change” value falls from 0.459 to -0.221.

RRIRVRPPRLPRPRPRPEPSPRP and RRIRVRPPRLPRPRPRPEQVPRP are within 0.2 log units of each other in “shrunken log2 fold change” value: 0.0778 for the first, 0.0835 for the second.

Going from RRIRVRPPRLPRPRPRPERYPRP to RRIRVRPPRLPRPRPRPESHPRP, the “shrunken log2 fold change” value falls from 0.133 to -0.138.

RRIRVRPPRLPRPRPRPESMPRP and RRIRVRPPRLPRPRPRPEVCPRP are within 0.2 log units of each other in “shrunken log2 fold change” value: -0.149 for the first, 0.0183 for the second.

First: RRIRVRPPRLPRPRPRPEWAPRP
Second: RRIRVRPPRLPRPRPRPFDHPRP
The “shrunken log2 fold change” value of the first is higher: 0.0253 for the first, -0.557 for the second.

RRIRVRPPRLPRPRPRPFFHPRP and RRIRVRPPRLPRPRPRPFFQPRP are within 0.2 log units of each other in “shrunken log2 fold change” value: 0.145 for the first, -0.0276 for the second.

First: RRIRVRPPRLPRPRPRPFGEPRP
Second: RRIRVRPPRLPRPRPRPFGPPRP
The “shrunken log2 fold change” value of the first is higher: 0.092 for the first, -0.543 for the second.

Compared with RRIRVRPPRLPRPRPRPFHCPRP, RRIRVRPPRLPRPRPRPFHGPRP is higher in “shrunken log2 fold change” value: -0.13 for the first, 0.162 for the second.

RRIRVRPPRLPRPRPRPFHPPRP and RRIRVRPPRLPRPRPRPFHYPRP are within 0.2 log units of each other in “shrunken log2 fold change” value: -0.309 for the first, -0.318 for the second.

RRIRVRPPRLPRPRPRPFIGPRP and RRIRVRPPRLPRPRPRPFINPRP are within 0.2 log units of each other in “shrunken log2 fold change” value: -0.291 for the first, -0.192 for the second.

RRIRVRPPRLPRPRPRPFKGPRP and RRIRVRPPRLPRPRPRPFKRPRP are within 0.2 log units of each other in “shrunken log2 fold change” value: -0.0313 for the first, -0.165 for the second.

Compared with RRIRVRPPRLPRPRPRPFLMPRP, RRIRVRPPRLPRPRPRPFMNPRP is lower in “shrunken log2 fold change” value: -0.208 for the first, -0.836 for the second.

First: RRIRVRPPRLPRPRPRPFMTPRP
Second: RRIRVRPPRLPRPRPRPFNFPRP
The “shrunken log2 fold change” value of the first is higher: 0.127 for the first, -1.01 for the second.

RRIRVRPPRLPRPRPRPFNMPRP and RRIRVRPPRLPRPRPRPFPPPRP are within 0.2 log units of each other in “shrunken log2 fold change” value: -0.19 for the first, -0.0462 for the second.

RRIRVRPPRLPRPRPRPFQCPRP and RRIRVRPPRLPRPRPRPFRCPRP are within 0.2 log units of each other in “shrunken log2 fold change” value: -0.0433 for the first, -0.123 for the second.

RRIRVRPPRLPRPRPRPFRHPRP and RRIRVRPPRLPRPRPRPFRKPRP are within 0.2 log units of each other in “shrunken log2 fold change” value: -0.185 for the first, -0.0712 for the second.

First: RRIRVRPPRLPRPRPRPFRLPRP
Second: RRIRVRPPRLPRPRPRPFSFPRP
The “shrunken log2 fold change” value of the first is lower: -0.267 for the first, 1.26 for the second.

RRIRVRPPRLPRPRPRPFTCPRP and RRIRVRPPRLPRPRPRPFTHPRP are within 0.2 log units of each other in “shrunken log2 fold change” value: -0.216 for the first, -0.222 for the second.

Going from RRIRVRPPRLPRPRPRPFVDPRP to RRIRVRPPRLPRPRPRPFWAPRP, the “shrunken log2 fold change” value rises from -0.385 to 0.182.

RRIRVRPPRLPRPRPRPFWIPRP and RRIRVRPPRLPRPRPRPFYAPRP are within 0.2 log units of each other in “shrunken log2 fold change” value: -0.182 for the first, -0.357 for the second.

Going from RRIRVRPPRLPRPRPRPFYIPRP to RRIRVRPPRLPRPRPRPGATPRP, the “shrunken log2 fold change” value rises from -0.457 to 0.277.

Compared with RRIRVRPPRLPRPRPRPGCEPRP, RRIRVRPPRLPRPRPRPGCKPRP is lower in “shrunken log2 fold change” value: 2.45 for the first, 0.32 for the second.

In the case of RRIRVRPPRLPRPRPRPGCLPRP, the “shrunken log2 fold change” value was 0.236.

From the supplement of paper PMC9112550, “Optimization of the antimicrobial peptide Bac7 by deep mutational scanning” (BMC Biology, 2022)
